Experimental data reported in doi:10.1101/2020.10.05.326918 (bioRxiv, 2020).

What was measured:
Experiment in all cases: cryo-EM structure
[1] = target: T1, MED23 (Mus musculus (endogenous in CH12 cells), UniProt Q80YQ2 1-1367)
T1 sequence (looked up): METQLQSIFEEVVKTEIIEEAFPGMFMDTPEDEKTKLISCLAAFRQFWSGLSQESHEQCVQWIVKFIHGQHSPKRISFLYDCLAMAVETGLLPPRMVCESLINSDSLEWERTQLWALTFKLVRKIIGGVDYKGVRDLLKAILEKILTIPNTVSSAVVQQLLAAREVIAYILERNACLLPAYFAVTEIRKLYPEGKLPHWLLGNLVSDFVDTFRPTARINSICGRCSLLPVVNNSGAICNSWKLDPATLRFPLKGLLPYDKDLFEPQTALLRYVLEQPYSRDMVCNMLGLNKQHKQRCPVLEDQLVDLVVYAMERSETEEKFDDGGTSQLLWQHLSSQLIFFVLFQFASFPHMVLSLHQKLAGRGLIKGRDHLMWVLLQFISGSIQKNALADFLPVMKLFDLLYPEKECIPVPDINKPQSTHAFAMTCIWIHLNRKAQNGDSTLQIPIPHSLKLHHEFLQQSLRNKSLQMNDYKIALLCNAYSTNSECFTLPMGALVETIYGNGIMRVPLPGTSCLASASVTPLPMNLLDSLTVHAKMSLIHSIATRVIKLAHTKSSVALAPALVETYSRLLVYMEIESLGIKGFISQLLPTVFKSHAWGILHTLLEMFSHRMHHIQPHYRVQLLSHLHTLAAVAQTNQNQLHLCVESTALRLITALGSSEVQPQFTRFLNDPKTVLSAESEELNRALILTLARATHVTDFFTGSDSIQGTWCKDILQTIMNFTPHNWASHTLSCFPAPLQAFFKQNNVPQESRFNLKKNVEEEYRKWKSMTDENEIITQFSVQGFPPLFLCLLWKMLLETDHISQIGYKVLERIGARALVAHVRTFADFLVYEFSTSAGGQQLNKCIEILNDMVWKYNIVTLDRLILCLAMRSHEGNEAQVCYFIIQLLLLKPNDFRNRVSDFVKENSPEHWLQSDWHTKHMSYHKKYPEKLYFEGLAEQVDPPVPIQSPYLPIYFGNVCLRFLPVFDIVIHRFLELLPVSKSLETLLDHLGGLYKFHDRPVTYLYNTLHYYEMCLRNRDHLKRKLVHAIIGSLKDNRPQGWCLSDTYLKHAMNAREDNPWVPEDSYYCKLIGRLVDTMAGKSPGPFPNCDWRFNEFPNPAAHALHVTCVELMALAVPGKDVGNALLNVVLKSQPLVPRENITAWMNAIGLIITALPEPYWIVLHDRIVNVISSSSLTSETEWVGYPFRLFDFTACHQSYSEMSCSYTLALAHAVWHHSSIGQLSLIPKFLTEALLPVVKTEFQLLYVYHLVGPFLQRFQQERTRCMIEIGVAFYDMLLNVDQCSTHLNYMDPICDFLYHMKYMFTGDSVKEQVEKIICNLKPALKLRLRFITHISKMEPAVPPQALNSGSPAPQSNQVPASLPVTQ

[2] = target: T2, MED24 (Mus musculus (endogenous in CH12 cells), UniProt Q99K74 1-987)
T2 sequence (looked up): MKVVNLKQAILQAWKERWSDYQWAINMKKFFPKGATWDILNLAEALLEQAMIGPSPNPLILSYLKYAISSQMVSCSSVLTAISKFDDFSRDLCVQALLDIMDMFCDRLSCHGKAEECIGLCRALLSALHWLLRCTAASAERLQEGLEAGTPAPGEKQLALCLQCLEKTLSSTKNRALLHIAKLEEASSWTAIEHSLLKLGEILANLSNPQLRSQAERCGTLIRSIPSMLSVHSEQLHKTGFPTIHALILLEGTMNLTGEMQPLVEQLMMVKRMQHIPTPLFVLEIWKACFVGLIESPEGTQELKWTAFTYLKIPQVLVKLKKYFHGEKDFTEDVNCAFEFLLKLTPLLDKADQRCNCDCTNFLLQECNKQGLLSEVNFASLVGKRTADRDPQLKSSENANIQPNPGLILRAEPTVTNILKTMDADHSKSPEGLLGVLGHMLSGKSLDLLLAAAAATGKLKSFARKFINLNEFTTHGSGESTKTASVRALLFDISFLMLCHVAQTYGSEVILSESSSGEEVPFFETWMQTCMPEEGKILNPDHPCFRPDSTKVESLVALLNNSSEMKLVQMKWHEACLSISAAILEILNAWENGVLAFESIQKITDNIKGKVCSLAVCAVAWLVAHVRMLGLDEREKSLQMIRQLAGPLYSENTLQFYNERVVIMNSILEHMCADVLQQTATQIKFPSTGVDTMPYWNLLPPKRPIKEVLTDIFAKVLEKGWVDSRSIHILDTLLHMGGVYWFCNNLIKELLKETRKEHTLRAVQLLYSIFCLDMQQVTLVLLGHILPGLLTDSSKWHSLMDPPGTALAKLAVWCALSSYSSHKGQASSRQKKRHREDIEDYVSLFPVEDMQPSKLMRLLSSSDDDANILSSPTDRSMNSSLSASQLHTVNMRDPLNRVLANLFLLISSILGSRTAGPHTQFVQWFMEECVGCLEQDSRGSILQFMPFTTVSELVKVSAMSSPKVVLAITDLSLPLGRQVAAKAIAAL

[3] = target: T3, MED16 (Mus musculus (endogenous in CH12 cells), UniProt Q6PGF3 1-828)
T3 sequence (looked up): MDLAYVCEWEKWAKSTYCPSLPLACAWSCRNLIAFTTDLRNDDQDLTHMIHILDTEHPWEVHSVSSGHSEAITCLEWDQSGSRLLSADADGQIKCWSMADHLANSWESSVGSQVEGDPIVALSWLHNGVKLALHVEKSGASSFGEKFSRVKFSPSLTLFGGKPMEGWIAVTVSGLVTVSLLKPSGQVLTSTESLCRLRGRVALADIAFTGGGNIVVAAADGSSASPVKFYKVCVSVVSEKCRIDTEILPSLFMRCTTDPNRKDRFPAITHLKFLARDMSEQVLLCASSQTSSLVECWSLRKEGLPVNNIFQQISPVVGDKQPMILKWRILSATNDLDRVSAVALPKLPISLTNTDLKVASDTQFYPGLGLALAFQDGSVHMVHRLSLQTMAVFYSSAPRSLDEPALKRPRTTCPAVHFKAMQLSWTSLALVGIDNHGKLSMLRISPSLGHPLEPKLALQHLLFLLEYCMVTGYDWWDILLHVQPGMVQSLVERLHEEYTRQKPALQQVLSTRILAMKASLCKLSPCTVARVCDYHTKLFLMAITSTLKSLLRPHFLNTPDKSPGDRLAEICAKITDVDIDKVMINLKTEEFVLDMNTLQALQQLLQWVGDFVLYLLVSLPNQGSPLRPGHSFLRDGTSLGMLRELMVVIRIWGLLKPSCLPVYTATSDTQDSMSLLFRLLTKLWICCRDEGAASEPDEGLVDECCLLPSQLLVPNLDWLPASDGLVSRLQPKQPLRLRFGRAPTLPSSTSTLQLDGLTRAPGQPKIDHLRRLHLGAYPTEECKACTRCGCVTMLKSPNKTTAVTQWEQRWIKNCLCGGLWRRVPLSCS

[4] = target: MED14 (Mus musculus (endogenous in CH12 cells), UniProt A2ABV5 1-1459)
MED14, sequence (A2ABV5 whole entry): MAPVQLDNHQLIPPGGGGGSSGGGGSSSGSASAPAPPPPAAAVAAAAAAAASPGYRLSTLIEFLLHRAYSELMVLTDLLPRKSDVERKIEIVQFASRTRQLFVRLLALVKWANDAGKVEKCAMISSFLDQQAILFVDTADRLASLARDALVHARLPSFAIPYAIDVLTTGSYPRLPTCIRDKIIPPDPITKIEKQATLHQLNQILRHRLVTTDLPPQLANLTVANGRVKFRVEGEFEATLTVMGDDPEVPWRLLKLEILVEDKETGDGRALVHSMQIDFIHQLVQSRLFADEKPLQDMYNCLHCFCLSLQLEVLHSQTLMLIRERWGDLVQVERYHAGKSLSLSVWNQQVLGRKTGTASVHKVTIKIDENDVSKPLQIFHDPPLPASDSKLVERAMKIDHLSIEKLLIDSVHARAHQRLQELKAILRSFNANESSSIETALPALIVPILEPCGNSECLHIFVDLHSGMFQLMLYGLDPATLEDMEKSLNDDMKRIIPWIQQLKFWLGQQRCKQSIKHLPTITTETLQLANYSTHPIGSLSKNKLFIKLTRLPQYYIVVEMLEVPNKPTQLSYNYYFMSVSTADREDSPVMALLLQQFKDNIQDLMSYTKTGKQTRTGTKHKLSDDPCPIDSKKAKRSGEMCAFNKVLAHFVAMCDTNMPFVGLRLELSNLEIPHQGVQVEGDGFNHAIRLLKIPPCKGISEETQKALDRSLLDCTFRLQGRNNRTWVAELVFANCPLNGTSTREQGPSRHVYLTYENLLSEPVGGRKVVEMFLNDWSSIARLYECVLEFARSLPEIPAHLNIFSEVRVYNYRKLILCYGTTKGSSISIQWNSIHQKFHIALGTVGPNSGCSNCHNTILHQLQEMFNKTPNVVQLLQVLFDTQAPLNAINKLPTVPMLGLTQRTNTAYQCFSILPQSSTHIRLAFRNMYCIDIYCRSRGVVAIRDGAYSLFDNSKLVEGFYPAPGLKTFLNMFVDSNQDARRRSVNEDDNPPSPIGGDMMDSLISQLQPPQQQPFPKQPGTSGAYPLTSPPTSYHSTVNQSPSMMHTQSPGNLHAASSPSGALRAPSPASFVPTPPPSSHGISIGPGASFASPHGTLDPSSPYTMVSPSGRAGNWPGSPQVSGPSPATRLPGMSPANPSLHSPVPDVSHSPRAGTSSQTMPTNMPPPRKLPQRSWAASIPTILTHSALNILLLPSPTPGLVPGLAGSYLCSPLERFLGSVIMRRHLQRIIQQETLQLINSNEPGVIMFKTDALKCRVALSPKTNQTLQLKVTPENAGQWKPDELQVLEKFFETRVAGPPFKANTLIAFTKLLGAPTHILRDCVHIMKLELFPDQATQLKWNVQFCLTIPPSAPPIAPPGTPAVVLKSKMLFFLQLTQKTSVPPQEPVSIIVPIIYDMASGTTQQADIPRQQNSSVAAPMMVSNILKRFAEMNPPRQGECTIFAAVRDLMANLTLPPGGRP

Measured: binding result

B1: MED25 (natural protein, Mus musculus (endogenous in CH12 cells), UniProt Q8VCB2 1-745, looked up)
chain: MVPGSEGPARAGGLVADVVFVIEGTANLGPYFEELRKHYLLPAIEYFNGGPPAETDFGGDYGGTQYSLVVFNTVDCAPESYVQCHAPTSSAYEFVTWLDGIKFMGGGGESCSLIAEGLSTALQLFDDFKKMREQIGQTHRVCLLICNSPPYLLPAVESTTYSGCTTESLVQKIGERGIHFSIVSPRKLPALRLLFEKAAPPALLEPLQQPADVSQDPRHMVLVRGLVLPVGGSSTSGSLQTKQAVPLPPAPASAATLSAAPPQALPPVPPQYQVPGNLSAAQVAAQNAVEAAKSQKAGLGPRFSPINPLQQAAPGVGPPFSQAPAPPLAPVPPGAPKPPPASQPSLVSTVAPGPVLAAPAQPGAPSLAGTVTPGGVNGPSAAQLGGPALGGQQSVSNKLLAWSGVLEWQEKPKPASVDANTKLTRSLPCQVYVNHGENLKTEQWPQKLIMQLIPQQLLTTLGPLFRNSRMVQFHFTNKDLESLKGLYRIMGNGFAGCVHFPHTAPCEVRVLMLLYSSKKKIFMGLIPYDQSGFVNGIRQVITNHKQVQQQKLEQQRGMGAQQAPPVLGPILEEQARPPQNLLQLRAPQPQPQGAVGASAATGQPQPQGATQAPTGAPQGPPGAAPGPPPSGPILRPQNPGANPQLRSLLLNPAPPQTGVPPPQASLHHLQPPGAPTLLPPHQSMGQPQLGPQLLHPPPAQSWPTQLPQRAPLPGQMLLSGGPRGPVPQPGLQPSVMEDDILMDLI
binds: [1] | [2] | [3]

B2: MED15 (natural protein, Mus musculus (endogenous in CH12 cells), UniProt Q924H2 1-789, looked up)
chain: MDVSGQETDWRSAAFRQKLVSQIEDAMRKAGVAHSKSSKDMESHVFLKAKTRDEYLSLVARLIIHFRDIHNKKSQASVSDPMNALQSLTGGPTPGAAGIGMPPRGPGQSLGGMGGLGAMGQPLPLSGQPPPGTSGMAPHGMAVVSTATPQTQLQLQQVALQQQQQQQQQQQFQQQQAALQQQQQQQQQQQQQQQFQAQQNAMQQQFQAVVQQQQLQQQQQQQHLIKLHHQSQQQQIQQQQLQRMAQLQLQQQQQQQQQQALQAQPPMQQPSMQQPQPPPSQALPQQLSQLHHPQHHQPPPQAQQSPIAQNQPPQIPPQSQSQPLVSQAQALPGPMLYAAQQQLKFVRAPMVVQQPQVQPQVQQVQPQVQPQAAVQAAQSAQMVAPGVQMIAEALAQGGMHVRARFPPTSTMSAGPSSSISLGGQPTTQVSQSSLTMLSSPSPGQQVQTPQSMPPPPQPSPQPGSQPNSNVSSGPAPSPSSFLPSPSPQPSQSPVTARTPQNFSVPSPGPLNTPVNPSSVMSPAGSSQAEEQQYLDKLKQLSKYIEPLRRMINKIDKNEDRKKDLSKMKSLLDILTDPSKRCPLKTLQKCEIALEKLKNDMAVPTPPPPPVLPTKQQDLCQPLLDAVLANIRSPVFNHSLYRTFVPAMMAIHGPPIVSPVVCSRKRRFEEDERQSIPNVLQGEVARLDPKFLVNLDPSHCSNNGTVHLICKLDDKDLPSVPPLELSVPADYPAQSPMWIDRQWQYDANPFLQSVHRCMTSRLLQLPDKHSVTALLNTWAQSIHQACLSAA
binds: [1] | [2] | [4] | [3]
